tested on: F1*sub RNA substrate (template-directed ligation); assay: fraction ligated after 30 min (ligated reads / total reads); higher = more ligase activity; sequences stand for … in GAGACCGCAACTGAAAAGTTGT…AGTTCTGCACGTAGAAGCAAAAGGC; conditions: 42 °C
Experimental: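 Chip-synthesised pool of F1* ligase ribozyme variants (all single and double substitutions, single, double and triple deletions in the catalytic core and GAA bulge, plus designed variants) was transcribed with T7 and reacted as a pool with excess substrate F1*sub for 30 min at 42 C in 50 mM EPPS pH 8.5, 25 mM MgCl2. Ligated and unligated bands were separated by PAGE, barcoded by RT and deep sequenced; fraction ligated = ligated reads / total reads per variant, relative activity = FL / FL of wild type (0.826). Sequences are the DNA template of the ribozyme.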

Sequence	fraction ligated
TATCACTTGTCGTAGAACTTTGATGGGTTGA [3d2015]	0.848
TATCACTTGCGTAAGACCTTTGGAGGGTTGA [3d1670]	0.0866
TATCACTGTCGTAAGACACTTTGGAGGTTGA [3d1457]	0.0147
TACACTGTCGAAGACACTTTGGATGGGTTGA [3d571]	0.346
TATCACTTGCGTAAGCATTTGGATGGGTTGA [3d1651]	0.83
TATCACTTTCTAAGACACTTTGGTGGGTTGA [3d1488]	0.101
TTACTTTCGTAAGACACTTTGGATGGGTTGA [3d280]	0.0128
TATCACTTGTCGTAAGACACTTTGGTGGGTTG [2d292]	0.0944
TATCACTTGTCTAAGACACTTTGGATGGGTT [3d1900]	0.747
TATCACTTGTCGTGACACTTTGATGGGTTGA [3d1987]	0.508
ATCACTTGTCGTAAGAACTTGGATGGGTTGA [3d232]	0.751
TATCACTTGTCGTAGACCTTTGATGGGTTGA [3d2022]	0.759
TATCACTTGTCGTAAGACCTTGATGGGTTGA [3d2184]	0.766
TACCTTGTCGTAAGCACTTTGGATGGGTTGA [3d536]	0.668
TTCACTTGTCGTAAGAACTTTGGATGGGTTGA [2d37]	0.748
TACACTTGCGTAAGACACTTTGGATGGGTTG [3d616]	0.118
TATCACTTGTCGTAAACACTTTGGGGGTTGA [3d2094]	0.0881
TATCCTTGTCGTGACACTTTGGATGGGTTGA [3d1042]	0.798
TCACTTGTCGTAAGCACTTTGGATGGGTTGA [3d13]	0.608
ATCACTTTCGTAAACACTTTGGATGGGTTGA [3d128]	0.779
TATCACTGTGTAAGACCTTTGGATGGGTTGA [3d1349]	0.889
TATCACTTGTCGTAAGACCTTGGATGGTTGA [3d2187]	0.127

Sequence	fraction ligated
TATCACTTTCGTAAGCACTTTGGATGGGTTA [3d1537]	0.727
TATCACTTGTGTAAGACCTTTGGTGGGTTGA [3d1774]	0.157
TATACTTGTCGTGACACTTTGGATGGGTTGA [3d870]	0.708
TATCACTTGTCGAAGACACTTTGATGGGTTG [3d1969]	0.732
TATCCTTGTCTAAGACACTTTGGATGGGTTGA [2d94]	0.798
TATATTGTCGAAGACACTTTGGATGGGTTGA [3d763]	0.376
TATCATTTCGAAGACACTTTGGATGGGTTGA [3d1142]	0.812
TATCACTGTCGTAAGCACTTTGATGGGTTGA [3d1412]	0.686
TATCACTTGTGTAAGACACTTTGGTGGTTGA [3d1800]	0.0267
TTCACTTGTCGTAAGACACTTTGATGGGTTA [3d495]	0.0395
TATCACTTGTCTAAGCACTTTGATGGGTTGA [3d1850]	0.724
TCACTTGTCGTAGACACTTTGGATGGGTTGA [3d11]	0.765
TATACTTGTGTAAGAACTTTGGATGGGTTGA [3d833]	0.814
TTCACTTGTCGTAAGACATTTGGATGGTTGA [3d481]	0.25
TATACTTGGTAAGACACTTTGGATGGGTTGA [3d812]	0.653
TATCACTTTCGTAGACCTTTGGATGGGTTGA [3d1510]	0.78
TATCACTTGTCTAAGACACTTGGTGGGTTGA [3d1880]	0.113
TATCACTTGTCGTAAGACCTTTGATGGGTTGA [2d263]	0.76
TATCACTTGTCTAAGACATTTGGAGGGTTGA [3d1874]	0.0252
TACACTTCGTAAGACACTTTGGATGGGTTGA [3d567]	0.0399
TATCACTTGTCGTAAGACCTTGGATGGGTTA [3d2188]	0.771
TATCACTTGTCGTAAGAACTTGGATGGTTGA [3d2163]	0.0536

Sequence	fraction ligated
TATCACTTGCGTAAGACACTTTGATGGGTTA [3d1692]	0.138
TATCACTTGTCTAAACACTTTGATGGGTTGA [3d1840]	0.753
TATCACTTGCGAAGACACTTTGATGGGTTGA [3d1620]	0.77
TATACTTGCGTAAGACATTTGGATGGGTTGA [3d820]	0.722
TATCACTTGTCGTAGACACTTGGATGGGTTA [3d2040]	0.757
TATACTTGTCGTAAGACACTTTGGTGGTTGA [3d939]	0.00845
TATCACTTTCGTAAGACACTTTGGTGGGTTA [3d1576]	0.0309
TATCACTTGTCGAAGACACTTTGGATGGTTA [3d1977]	0.364
TACACTTGTCGTAAGACACTTGGATGGGTTG [3d720]	0.106
TATCACTTGTCGTAGACCTTTGGATGGGTTGA [2d225]	0.814
TATCACTTGCGTAGACACTTTGGATGGTTGA [3d1636]	0.296
TATCATTGTCGTAAACACTTTGGATGGTTGA [3d1234]	0.0592
TATACTTGTCGTAAGACATTTGGTGGGTTGA [3d920]	0.0527
TATCACTTGTCGAAGACACTTTGGTGGTTGA [3d1971]	0.0847
TATACTTGCGTAAGACCTTTGGATGGGTTGA [3d819]	0.629
TTCACTTGTCGTAAGACACTTGGATGGGTTA [3d489]	0.0495
TATCCTTGTCGTAAGACCTTTGGATGGTTGA [3d1087]	0.0339
TATCACTTGTGTAAGAACTTTGATGGGTTGA [3d1766]	0.834
TACACTTGCGTAAGACACTTTGGTGGGTTGA [3d612]	0.0235
TATCACTTGCGTAGACACTTTGGAGGGTTGA [3d1635]	0.105
TATCATTTCGTAAGACACTTTGGATGGGTTGA [2d110]	0.807
TACACTTTCGTAAGACACTTTGATGGGTTGA [3d595]	0.0271

Sequence	fraction ligated
ATCACTTGTCGTAAGACACTTTGATGGTTGA [3d263]	0.0782
TATCACTTGTTAAGACACTTGGATGGGTTGA [3d1711]	0.784
TATACTTGTCGAAGACACTTTGGTGGGTTGA [3d865]	0.0282
TACCTTGTGTAAGACACTTTGGATGGGTTGA [3d531]	0.795
TATCACTTGTCGTAGAACTTTGGAGGGTTGA [3d2017]	0.119
TATCACTTTGTAAGACACTTTGGATGGGTTA [3d1477]	0.776
TTCACTTGTCGTAAGACACTTTGGATGGTTGA [2d44]	0.739
TTCACTTGTCGTAAGCACTTTGATGGGTTGA [3d456]	0.0811
TATCACTTTCGTAAGACCTTGGATGGGTTGA [3d1547]	0.766
TACACTTGTCGTGACACTTTGGATGGGTTGA [3d659]	0.0318
TATCATTGTCGTAAGAACTTTGGATGGGTTA [3d1253]	0.623
TATCACTTGTCGTAAGACACTTTGGGGTTGA [3d2260]	0.0415
TATCACTGCGTAAGACACTTTGGATGGGTTGA [2d130]	0.851
ATCACTTGTCTAAGACACTTTGGATGGTTGA [3d182]	0.676
TATCATTTCGTAAGACACTTTGGATGGGTTA [3d1154]	0.313
TATCACTTGTCGTAAGCACTTTGGTGGTTGA [3d2142]	0.118
TATCACTTGTCGTAAGCACTTGGATGGTTGA [3d2132]	0.108
TTCACTTGTCGTAAGACCTTTGGATGGGTTA [3d475]	0.347
TATCACTTTCGTAGACACTTTGGATGGGTTGA [2d150]	0.802
ATCACTTGTGTAAGACCTTTGGATGGGTTGA [3d162]	0.811
TATCACTTGGAAGACACTTTGGATGGGTTGA [3d1585]	0.823
TATCACTGTCGTAAGACACTTTGGATGGTTGA [2d144]	0.513

Sequence	fraction ligated
ATACTTGTCGTAAGACACTTTGGATGGGTTGA [2d3]	0.478
TATACTTGTCGTAAGACCTTTGGATGGGTTG [3d917]	0.719
TATCACTTGTCGTAAGAACTTTATGGGTTGA [3d2166]	0.067
ATCACTTGTCGTAAGACCTTTGATGGGTTGA [3d240]	0.311
TATCACTGTGTAAGAACTTTGGATGGGTTGA [3d1348]	0.882
TATCATTGTCGTAGACACTTTGGAGGGTTGA [3d1223]	0.0919
TATCACTGCGTAAGACACTTTGATGGGTTGA [3d1337]	0.763
TATCACTGCGTAAGACACTTTGGATGGGTTG [3d1342]	0.834
TATCACTTGTCGAAACATTTGGATGGGTTGA [3d1917]	0.821
TACACTTGTCTAAGACACTTTGGATGGGTTG [3d645]	0.595
TATCACTTGCGTAAGACATTTGGATGGGTTG [3d1680]	0.84
TACACTTGTGTAAGACACTTGGATGGGTTGA [3d625]	0.0347
TAACTTGTCGTAAGAACTTTGGATGGGTTGA [3d518]	0.21
TATCACTTTCGTAAGACACTTGATGGGTTGA [3d1562]	0.787
TACACTTGCGTAAGACACTTTGGAGGGTTGA [3d613]	0.044
ATCACTGTCGTAAGACACTTTGGATGGGTTGA [2d6]	0.739
TATCACTTGTCGTAAGACATTGGATGGGTTG [3d2213]	0.797
TATCACTTGTCGTAAGCACTTGATGGGTTGA [3d2129]	0.743
TTCACTTGTCGTAGACACTTTGGTGGGTTGA [3d437]	0.0435
TATCACTTGTCTAAGAACTTTGGTGGGTTGA [3d1859]	0.162
